From US20240116985A1, “STAPLED PEPTIDES AND METHODS THEREOF” (priority 2020, published 2024)
Values joined by “and” are separate entries in the source; they are usually repeats but may differ in a detail not shown here. Equal entries are not always repeated. Starred links: 1 amine or outer side, 2 acyl side, 3 side chain; linkers in the order of their positions; H or OH if unused. Positions of bridges follow the written chain, without caps; N, C: chain ends. Non-standard residues stand in square brackets, D forms with d. PyrS2 = (S)-3-amino-1-((pent-4-en-1-yloxy)carbonyl)pyrrolidine-3-carboxylic acid, C=CCCCOC(=O)N1CC[C@@](N[*:1])(C(=O)[*:2])C1; B5 = 2-amino-2-(pent-4-en-1-yl)hept-6-enoic acid, C=CCCCC(CCCC=C)(N[*:1])C(=O)[*:2]; Bta = N[C@@H](Cc1csc2ccccc12)C(=O)O; αAllylPro = C=CC[C@@]1(C(=O)O)CCCN1; tBuAla = CC(C)(C)C[C@H](N)C(=O)O; 3Thi = N[C@@H](Cc1ccsc1)C(=O)O

Key:
[1] = biological target: beta-catenin-Halo (NanoBRET construct expressed in HEK293 cells) (Homo sapiens (Human)) (UniProt P35222); experiment: NanoBRET, HEK293 cells with Bcat-Halo and TCF4-Luc; plate row C (10 uM by plate map), plate column 5
[2] = biological target: beta-catenin-Halo NanoBRET construct (Homo sapiens (Human)) (UniProt P35222); experiment: NanoBRET, Bcat-Halo/TCF4-Luc in HEK293 cells; peptide 20 uM; replicate 2; competitor TCF4-Luc
[3] = biological target: beta-catenin-Halo (NanoBRET construct expressed in HEK293 cells) (Homo sapiens (Human)) (UniProt P35222); experiment: NanoBRET, HEK293 cells with Bcat-Halo and TCF4-Luc; plate row G (0.625 uM by plate map), plate column 6
[4] = biological target: beta-catenin-Halo NanoBRET construct (Homo sapiens (Human)) (UniProt P35222); experiment: NanoBRET, Bcat-Halo/TCF4-Luc in HEK293 cells; peptide 1.25 uM; replicate 2; competitor TCF4-Luc
[5] = biological target: beta-catenin-Halo (NanoBRET construct expressed in HEK293 cells) (Homo sapiens (Human)) (UniProt P35222); experiment: NanoBRET, HEK293 cells with Bcat-Halo and TCF4-Luc; plate row E (2.5 uM by plate map), plate column 6
[6] = biological target: full-length beta-Catenin (Uniprot ID P35222) (Homo sapiens (Human)) (UniProt P35222); experiment: fluorescence polarization competition: peptide titrated against 10 nM full-length beta-catenin + 10 nM 5FAM-TCF4(10-53) probe
[7] = biological target: beta-catenin-Halo (NanoBRET construct expressed in HEK293 cells) (Homo sapiens (Human)) (UniProt P35222); experiment: NanoBRET, HEK293 cells with Bcat-Halo and TCF4-Luc; plate row B (20 uM by plate map), plate column 6
[8] = biological target: beta-catenin-Halo (NanoBRET construct expressed in HEK293 cells) (Homo sapiens (Human)) (UniProt P35222); experiment: NanoBRET, HEK293 cells with Bcat-Halo and TCF4-Luc; plate row F (1.25 uM by plate map), plate column 5
[9] = biological target: beta-catenin-Halo (NanoBRET construct expressed in HEK293 cells) (Homo sapiens (Human)) (UniProt P35222); experiment: NanoBRET, HEK293 cells with Bcat-Halo and TCF4-Luc; plate row F (1.25 uM by plate map), plate column 7
[10] = biological target: beta-catenin-Halo (NanoBRET construct expressed in HEK293 cells) (Homo sapiens (Human)) (UniProt P35222); experiment: NanoBRET, HEK293 cells with Bcat-Halo and TCF4-Luc; plate row E (2.5 uM by plate map), plate column 5
[11] = biological target: beta-catenin-Halo NanoBRET construct (Homo sapiens (Human)) (UniProt P35222); experiment: NanoBRET, Bcat-Halo/TCF4-Luc in HEK293 cells; peptide 2.5 uM; replicate 3; competitor TCF4-Luc
[12] = biological target: beta-catenin-Halo NanoBRET construct (Homo sapiens (Human)) (UniProt P35222); experiment: NanoBRET, Bcat-Halo/TCF4-Luc in HEK293 cells; peptide 0.625 uM; replicate 1; competitor TCF4-Luc
[13] = biological target: beta-catenin-Halo (NanoBRET construct expressed in HEK293 cells) (Homo sapiens (Human)) (UniProt P35222); experiment: NanoBRET, HEK293 cells with Bcat-Halo and TCF4-Luc; plate row G (0.625 uM by plate map), plate column 7
[14] = biological target: beta-catenin-Halo NanoBRET construct (Homo sapiens (Human)) (UniProt P35222); experiment: NanoBRET, Bcat-Halo/TCF4-Luc in HEK293 cells; peptide 10 uM; replicate 1; competitor TCF4-Luc
[15] = biological target: beta-catenin-Halo NanoBRET construct (Homo sapiens (Human)) (UniProt P35222); experiment: NanoBRET raw acceptor reading, Bcat-Halo/TCF4-Luc in HEK293 cells; plate row D (5 uM by plate map); competitor TCF4-Luc
[16] = biological target: beta-catenin-Halo NanoBRET construct (Homo sapiens (Human)) (UniProt P35222); experiment: NanoBRET, Bcat-Halo/TCF4-Luc in HEK293 cells; peptide 20 uM; replicate 3; competitor TCF4-Luc
[17] = biological target: beta-catenin-Halo NanoBRET construct (Homo sapiens (Human)) (UniProt P35222); experiment: NanoBRET, Bcat-Halo/TCF4-Luc in HEK293 cells; peptide 0.625 uM; replicate 2; competitor TCF4-Luc
[18] = biological target: beta-catenin-Halo NanoBRET construct (Homo sapiens (Human)) (UniProt P35222); experiment: NanoBRET, Bcat-Halo/TCF4-Luc in HEK293 cells; peptide 5 uM; replicate 1; competitor TCF4-Luc
[19] = biological target: beta-catenin-Halo (NanoBRET construct expressed in HEK293 cells) (Homo sapiens (Human)) (UniProt P35222); experiment: NanoBRET, HEK293 cells with Bcat-Halo and TCF4-Luc; plate row D (5 uM by plate map), plate column 7
[20] = biological target: beta-catenin-Halo (NanoBRET construct expressed in HEK293 cells) (Homo sapiens (Human)) (UniProt P35222); experiment: NanoBRET, HEK293 cells with Bcat-Halo and TCF4-Luc; plate row E (2.5 uM by plate map), plate column 7
[21] = biological target: beta-catenin-Halo (NanoBRET construct expressed in HEK293 cells) (Homo sapiens (Human)) (UniProt P35222); experiment: NanoBRET, HEK293 cells with Bcat-Halo and TCF4-Luc; plate row C (10 uM by plate map), plate column 6
[22] = biological target: B-cat-Halo (beta-catenin HaloTag NanoBRET construct expressed in HEK293 cells) (UniProt P35222); experiment: NanoBRET in HEK293 cells, Bcat-Halo + TCF4-Luc, peptide at 10 uM
[23] = biological target: beta-catenin-Halo NanoBRET construct (Homo sapiens (Human)) (UniProt P35222); experiment: NanoBRET, Bcat-Halo/TCF4-Luc in HEK293 cells; peptide 5 uM; replicate 3; competitor TCF4-Luc
[24] = biological target: beta-catenin-Halo NanoBRET construct (Homo sapiens (Human)) (UniProt P35222); experiment: NanoBRET, Bcat-Halo/TCF4-Luc in HEK293 cells; peptide 2.5 uM; replicate 1; competitor TCF4-Luc
[25] = biological target: beta-catenin-Halo NanoBRET construct (Homo sapiens (Human)) (UniProt P35222); experiment: NanoBRET, Bcat-Halo/TCF4-Luc in HEK293 cells; peptide 10 uM; replicate 2; competitor TCF4-Luc

Chain of beta-catenin-Halo NanoBRET construct (Homo sapiens (Human)) (P35222 whole entry): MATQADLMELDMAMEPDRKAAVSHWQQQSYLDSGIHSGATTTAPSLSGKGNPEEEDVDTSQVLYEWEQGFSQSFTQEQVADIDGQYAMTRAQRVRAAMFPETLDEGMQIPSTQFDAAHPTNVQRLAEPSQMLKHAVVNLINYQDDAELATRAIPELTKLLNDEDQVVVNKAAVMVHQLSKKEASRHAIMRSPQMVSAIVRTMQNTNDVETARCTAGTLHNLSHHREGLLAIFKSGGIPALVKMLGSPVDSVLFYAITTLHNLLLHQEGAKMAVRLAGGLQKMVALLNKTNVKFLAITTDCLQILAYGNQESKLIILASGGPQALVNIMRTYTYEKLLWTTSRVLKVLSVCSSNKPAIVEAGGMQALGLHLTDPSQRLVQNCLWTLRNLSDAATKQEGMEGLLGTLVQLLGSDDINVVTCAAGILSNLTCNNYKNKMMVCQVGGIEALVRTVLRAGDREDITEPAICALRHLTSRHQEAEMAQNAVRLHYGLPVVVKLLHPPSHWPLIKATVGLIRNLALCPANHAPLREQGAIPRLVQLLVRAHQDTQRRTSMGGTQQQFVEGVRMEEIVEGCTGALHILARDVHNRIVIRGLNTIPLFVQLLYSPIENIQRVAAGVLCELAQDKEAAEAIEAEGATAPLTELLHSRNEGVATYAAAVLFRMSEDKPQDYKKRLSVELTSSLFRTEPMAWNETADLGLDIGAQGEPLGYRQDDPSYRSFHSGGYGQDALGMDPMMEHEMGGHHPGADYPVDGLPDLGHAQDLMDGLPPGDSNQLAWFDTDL
Chain of beta-catenin-Halo (NanoBRET construct expressed in HEK293 cells) (Homo sapiens (Human)) (P35222 whole entry): as above
Chain of B-cat-Halo (beta-catenin HaloTag NanoBRET construct expressed in HEK293 cells) (P35222 whole entry): as above
Chain of full-length beta-Catenin (Uniprot ID P35222) (Homo sapiens (Human)) (P35222 2-781 limits assumed): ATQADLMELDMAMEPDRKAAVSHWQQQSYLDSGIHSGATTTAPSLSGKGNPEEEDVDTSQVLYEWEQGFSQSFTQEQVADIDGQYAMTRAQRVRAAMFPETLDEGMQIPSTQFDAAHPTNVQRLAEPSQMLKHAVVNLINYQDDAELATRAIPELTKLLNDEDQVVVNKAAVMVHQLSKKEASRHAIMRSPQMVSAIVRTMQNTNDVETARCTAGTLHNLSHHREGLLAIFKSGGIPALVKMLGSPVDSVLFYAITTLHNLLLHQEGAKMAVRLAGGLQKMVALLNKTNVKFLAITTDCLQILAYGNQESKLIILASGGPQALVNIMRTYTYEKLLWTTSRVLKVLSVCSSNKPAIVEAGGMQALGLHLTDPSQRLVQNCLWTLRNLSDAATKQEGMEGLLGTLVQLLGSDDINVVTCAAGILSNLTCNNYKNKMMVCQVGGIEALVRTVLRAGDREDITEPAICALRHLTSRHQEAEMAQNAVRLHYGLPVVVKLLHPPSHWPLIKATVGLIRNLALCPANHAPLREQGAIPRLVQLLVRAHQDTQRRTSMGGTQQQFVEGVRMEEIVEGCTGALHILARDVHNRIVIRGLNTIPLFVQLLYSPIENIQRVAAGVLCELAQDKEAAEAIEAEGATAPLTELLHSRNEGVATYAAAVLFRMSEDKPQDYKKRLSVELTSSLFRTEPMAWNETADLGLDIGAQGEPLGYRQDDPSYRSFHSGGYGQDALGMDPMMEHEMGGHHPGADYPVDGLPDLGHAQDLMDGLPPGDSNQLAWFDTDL

- NanoBRET donor emission 450 BP (raw reading) [1]: 58500
- % Inhibition [2]: -0.3%
- NanoBRET donor emission 450 BP (raw reading) [3]: 35700
- % Inhibition [4]: -1.1%
- NanoBRET donor emission 450 BP (raw reading) [5]: 22700
- EC50 [6]: 10 µM
- NanoBRET donor emission 450 BP (raw reading) [7]: 55900
- NanoBRET donor emission 450 BP (raw reading) [8]: 21800
- NanoBRET donor emission 450 BP (raw reading) [9]: 71100
- NanoBRET donor emission 450 BP (raw reading) [10]: 34100
- % Inhibition [11]: -11.7%
- % Inhibition [12]: -56.5%
- NanoBRET donor emission 450 BP (raw reading) [13]: 47600
- % Inhibition [14]: -21.7%
- Acceptor 600 LP emission [15]: 510 and 420 and 630
- % Inhibition [16]: -19.5%
- % Inhibition [17]: -6.9%
- % Inhibition [18]: -16.9%
- NanoBRET donor emission 450 BP (raw reading) [19]: 47500
- NanoBRET donor emission 450 BP (raw reading) [20]: 40100
- NanoBRET donor emission 450 BP (raw reading) [21]: 25900
- NanoBRET % inh @ 10 uM [22]: 4.3%
- % Inhibition [23]: -18.6%
- % Inhibition [24]: -21.3%
- % Inhibition [25]: -21.9%
Binder: Ac-[αAllylPro]F[tBuAla][B5]DDAADN[PyrS2][3Thi][Bta]Q-NH2 (staple 1-4, 4-11) [I-797]
